Data on 1 molecule can be found in article PMC12607630, “ZapC crosslinks FtsZ filaments through a dual-binding mechanism modulated by the intrinsically disordered linker of FtsZ in Escherichia coli” (mBio, 2025).

Where “and” joins values, the source holds several entries; their conditions need not be identical. Equal entries are not always repeated.

This assay has as its target T1, FtsZ (untagged, wild type) (Escherichia coli, UniProt P0A9A6 1-383).
T1 construct: also called wild-type FtsZ; source: E. coli BL21(DE3), plasmid pLY17, purified (Ni-NTA); 6×His-SUMO tag removed with Ulp1; not shown: 6×His-SUMO, N-terminal, cleaved
T1 sequence (looked up): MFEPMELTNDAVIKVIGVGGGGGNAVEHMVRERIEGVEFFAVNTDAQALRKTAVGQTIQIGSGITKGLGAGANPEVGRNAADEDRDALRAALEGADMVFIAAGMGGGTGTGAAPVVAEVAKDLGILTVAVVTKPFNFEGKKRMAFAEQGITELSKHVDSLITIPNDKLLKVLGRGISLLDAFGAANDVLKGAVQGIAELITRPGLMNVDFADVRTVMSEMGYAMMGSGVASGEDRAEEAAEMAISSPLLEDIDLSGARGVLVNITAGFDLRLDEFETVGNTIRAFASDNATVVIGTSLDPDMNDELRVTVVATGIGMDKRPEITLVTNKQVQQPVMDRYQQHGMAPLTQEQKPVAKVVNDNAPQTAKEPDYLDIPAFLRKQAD
Description: BLI; 6×His-ZapC or its mutants (0.5 µM) loaded on Ni-NTA biosensors, untagged FtsZ or its variants in solution; Octet-Red96, 30°C, 1× Pol buffer (50 mM HEPES-NaOH pH 6.8, 50 mM KCl, 10 mM MgCl2); apparent Kd from the signal at the end of association against concentration, one-site fit; three repeats with mean (X) and SD. The following applies: both partners purified.

B1: 6×His-ZapC (natural protein)
chain: not shown
notes: ZapC, FtsZ-associated protein of Escherichia coli; Construction of pSD323 is not described; also called His-tagged ZapC; source: E. coli, plasmid pSD323 (pQE80, Plac::6×His-ZapC), purified (Ni-NTA); not shown: His6, N-terminal, kept
As for B1, the Kd is 377 nM and 395 nM and 364 nM and 379 nM.
